Measurements taken from US20240124575A1 (SIMCERE ZAIMING PHARMACEUTICAL, published 2024).

B1: C33B904 hIgG1 (antibody, V domains shown)
VH: EVQLVESGGGLVQPGRSLRLSCAASGFTFDDYAMHWVRQAPGKGLEWVSGIGWSGGSIVYADSVKGRFTISRDNAKNSLYLQMNSLRAEDTALYYCAKDSPYGDFFDYWGQGTLVTVSS
VL: DIVMTQSPDSLAVSLGERATINCKSSQTVFYSSNNKNYLAWYQQKPGQPPKLLISWASTRKSGVPDRFSGSGSGTDFTLTVSSLQAEDVAVYYCQHYYSTPYTFGQGTKLEIKR
notes: intact human IgG1; variable regions from US20190382481A1; also called C33B3904; C331B904
B2: C33B904 (antibody, human IgG1, kappa, V domains shown)
VH: EVQLVESGGGLVQPGRSLRLSCAASGFTFDDYAMHWVRQAPGKGLEWVSGIGWSGGSIVYADSVKGRFTISRDNAKNSLYLQMNSLRAEDTALYYCAKDSPYGDFFDYWGQGTLVTVSS
VL: DIVMTQSPDSLAVSLGERATINCKSSQTVFYSSNNKNYLAWYQQKPGQPPKLLISWASTRKSGVPDRFSGSGSGTDFTLTVSSLQAEDVAVYYCQHYYSTPYTFGQGTKLEIKR
notes: control antibody, intact human IgG1 form; variable regions from US20190382481A1; also called C33B904 hIgG1; C331B904

What was measured:
[1] = molecular target: T1, human CD33-V-his (human, UniProt P20138 18-144); assay: ELISA on coated human CD33-V-his
T1 construct: expressed in HEK293E; also called hCD33-V-his; human CD33 protein V-domain; not shown: His tag

[2] = molecular target: T2, human CD33-his protein (human, UniProt P20138 18-259); assay: competition ELISA, coated human CD33-his, vs Biotin-C33B904 at EC80; antibody 7.81 nM
T2 construct: range 18-259; bought protein; also called hCD33-his; recombinant human CD33-his; not shown: His tag
Procedure: (§1) The plate was sealed with a plastic film and incubated at 4° C. overnight, washed twice with PBS the next day, and a blocking solution [PBS+2% (w/w) BSA] was added for blocking at room temperature for 2 h. The blocking solution was discarded, and VHH-Fc antibody or negative control antibody serially diluted from 100 nM was added at 50 μL/well. After incubation at 37° C. for 2 h, the plate was washed 3 times with PBS. A secondary antibody labeled with HRP (horseradish peroxidase) (purchased from Sigma, Cat. No. A0170) was added. After incubation for 1 h at 37° C., the plate was washed 5 times with PBS. A TMB substrate was added at 50 μL/well. After incubation at room temperature for 10 min, a stop solution (1.0 N HCl) was added at 50 μL/well. The OD450 nm values were read on an ELISA plate reader (Multimode Plate Reader, EnSight, purchased from Perkin Elmer). The assay results for the binding of the VHH-Fc to hCD33-his by ELISA are shown in FIGS. 7A and 7B and Tables 11 and 12. […] The IgG control was hIgG1, and the data in the table are OD450 nm values.
(§2) ELISA plates were coated with 2 μg/mL human CD33-his protein according to the method in Example 5.1; the Biotin-C331B904 antibody was subjected to a gradient dilution from 15 μg/mL, and EC80 values (0.18 μg/mL) were calculated. […] OD_{450 nm} values were read using an ELISA plate reader (Insight, purchased from PerkinElmer). […]

[3] = molecular target: T2, human CD33-his protein; assay: competition ELISA, coated human CD33-his, vs Biotin-C33B904 at EC80; antibody 1.95 nM
Procedure: as §1, §2

[4] = molecular target: T2, human CD33-his protein; assay: competition ELISA, coated human CD33-his, vs Biotin-C33B904 at EC80; antibody 0.49 nM
Procedure: ELISA plates were coated with 2 μg/mL human CD33-his protein according to the method in Example 5.1; the Biotin-C331B904 antibody was subjected to a gradient dilution from 15 μg/mL, and EC80 values (0.18 μg/mL) were calculated. ELISA plates were coated with 2 μg/mL human CD33-his protein; starting from 40 μg/mL, the VHH antibodies to be tested were diluted in a 1:2 dilution ratio to obtain seven concentrations and added to the ELISA plates, and then Biotin-C331904 antibodies with the EC80 concentrations were added for incubation for 2 h. The plates were washed 5 times with PBS and then […] (purchased from Sigma, Cat. No. S2438) were added for incubation for 1 h, and the plates were washed 5 times. A TMB substrate was added at 50 μL/well and incubated at room temperature for 10 min, then a stop solution (1.0 M HCl) was added at 50 μL/well. OD_{450 nm} values were read using an ELISA plate reader (Insight, purchased from PerkinElmer). Then, analysis was performed by software (GraphPad Prism8), and data were fitted for curve plotting. The results are shown in FIGS. 13A-13B and Tables 28 and 29.

T2 sequence (P20138 18-259 limits assumed): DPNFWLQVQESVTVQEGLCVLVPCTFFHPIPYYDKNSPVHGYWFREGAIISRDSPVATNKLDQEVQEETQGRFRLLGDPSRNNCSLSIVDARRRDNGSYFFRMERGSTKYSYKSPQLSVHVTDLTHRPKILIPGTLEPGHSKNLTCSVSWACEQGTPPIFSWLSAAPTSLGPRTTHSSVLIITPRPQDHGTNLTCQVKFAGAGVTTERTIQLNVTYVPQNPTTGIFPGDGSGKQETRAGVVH
T1 sequence (P20138 other isoform, or with tags, fused parts or gaps limits assumed): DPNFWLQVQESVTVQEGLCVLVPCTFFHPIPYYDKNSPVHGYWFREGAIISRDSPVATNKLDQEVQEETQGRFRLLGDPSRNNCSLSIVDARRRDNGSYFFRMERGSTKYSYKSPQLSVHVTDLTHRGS

| Binder | binding result [1] | OD450 (Biotin-C33B904 signal) [2] | OD450 (Biotin-C33B904 signal) [3] | OD450 (Biotin-C33B904 signal) [4] |
| --- | --- | --- | --- | --- |
| B1 | no binding (tested: 100 nM) | – | – | – |
| B2 | – | 1.72 | 2.43 | 2.26 |
